Measurements as given in publication PMC11053110 (Nature Communications, 2024).

Target: T1, GST-tagged IRF3 (human, UniProt Q14653 1-427)
T1 construct: also called GST-IRF3
T1 sequence (looked up): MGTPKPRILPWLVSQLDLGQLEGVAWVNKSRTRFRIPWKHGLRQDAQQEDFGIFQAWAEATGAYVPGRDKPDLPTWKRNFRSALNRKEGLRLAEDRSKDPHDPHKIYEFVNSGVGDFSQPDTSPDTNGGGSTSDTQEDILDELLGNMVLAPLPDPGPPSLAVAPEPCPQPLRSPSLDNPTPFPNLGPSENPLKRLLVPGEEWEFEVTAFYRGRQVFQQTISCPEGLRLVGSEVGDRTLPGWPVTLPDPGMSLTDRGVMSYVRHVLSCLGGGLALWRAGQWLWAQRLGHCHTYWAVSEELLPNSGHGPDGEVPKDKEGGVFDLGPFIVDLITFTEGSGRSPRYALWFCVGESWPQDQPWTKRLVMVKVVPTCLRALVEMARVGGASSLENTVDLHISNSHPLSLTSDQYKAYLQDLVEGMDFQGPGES
Experiment: pull-down
Conditions: both partners purified

B1: His-tagged EGLN1 (enzyme, human, UniProt Q9GZT9 1-426, looked up)
chain: MANDSGGPGGPSPSERDRQYCELCGKMENLLRCSRCRSSFYCCKEHQRQDWKKHKLVCQGSEGALGHGVGPHQHSGPAPPAAVPPPRAGAREPRKAAARRDNASGDAAKGKVKAKPPADPAAAASPCRAAAGGQGSAVAAEAEPGKEEPPARSSLFQEKANLYPPSNTPGDALSPGGGLRPNGQTKPLPALKLALEYIVPCMNKHGICVVDDFLGKETGQQIGDEVRALHDTGKFTDGQLVSQKSDSSKDIRGDKITWIEGKEPGCETIGLLMSSMDDLIRHCNGKLGSYKINGRTKAMVACYPGNGTGYVRHVDNPNGDGRCVTCIYYLNKDWDAKVSGGILRIFPEGKAQFADIEPKFDRLLFFWSDRRNPHEVQPAYATRYAITVWYFDADERARAKVKYLTGEKGVRVELNKPSDSVGKDVF
notes: also called His-EGLN1
B1: binds.
